Data reported in US20080020978A1 (Amgen, published 2008).
Bridge positions count the residues as written; N and C are the ends. Square brackets hold non-standard residues; d marks the D form. hArg = N=C(N)NCCCC[C@H](N)C(=O)O; hCit = NC(=O)NCCCC[C@H](N)C(=O)O

target: CGRP1 receptor (CRLR/RAMP1 complex) of human neuroblastoma SK-N-MC cells (human, UniProt Q16602 23-461; O60894 27-148); test: cell-based or functional assay
Sequence (Q16602 23-461, chain 1 of 2): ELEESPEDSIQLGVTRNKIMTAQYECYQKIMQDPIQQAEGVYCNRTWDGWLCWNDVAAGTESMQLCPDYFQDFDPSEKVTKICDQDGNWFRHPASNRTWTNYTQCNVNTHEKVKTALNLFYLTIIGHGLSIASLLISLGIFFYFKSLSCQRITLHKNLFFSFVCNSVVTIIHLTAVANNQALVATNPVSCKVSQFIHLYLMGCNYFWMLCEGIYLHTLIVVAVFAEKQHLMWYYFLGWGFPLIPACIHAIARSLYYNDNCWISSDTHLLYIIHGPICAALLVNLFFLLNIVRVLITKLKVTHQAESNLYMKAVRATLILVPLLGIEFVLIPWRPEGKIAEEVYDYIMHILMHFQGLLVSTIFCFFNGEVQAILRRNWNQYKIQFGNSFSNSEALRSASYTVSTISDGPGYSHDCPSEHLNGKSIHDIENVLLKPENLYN
Sequence (O60894 27-148, chain 2 of 2): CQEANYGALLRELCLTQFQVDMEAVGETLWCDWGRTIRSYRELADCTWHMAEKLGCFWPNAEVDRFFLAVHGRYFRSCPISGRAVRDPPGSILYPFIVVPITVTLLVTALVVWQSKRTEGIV

| Binder | PEG-peptide IC50 [nM] | Peptide IC50 [nM] |
| --- | --- | --- |
| Ac-WVTH[hCit]LAGLLS[hArg]SGGVV[hArg]KNFVPTDVGPFAF-NH2 (also: PEG-conjugated, in most cases at Lys25) [PEG-peptide of SEQ ID NO 888] | 2.11 | – |
| Ac-WVEHRLKGELSRKGGVVRKNFVPTDVGPFAF-NH2 (lactam 9-13, 3-7) [SEQ ID NO 892] | – | 1.11 |
| Ac-WVEHRLKGLLSRSGGVVRKNFVPTDVGPFAF-NH2 (lactam 3-7; also: PEG-conjugated, in most cases at Lys25) [PEG-peptide of SEQ ID NO 891] | 3.71 | – |
| Ac-WVEHRLEGLLKRSGGVVRKNFVPTDVGPFAF-NH2 (lactam 7-11; also: PEG-conjugated, in most cases at Lys25) [PEG-peptide of SEQ ID NO 890] | 2.86 | – |
| WVTHXLAGLLSXSGGVVXKNFVPTDVGPFAF (Ac-WVTH[hCit]LAGLLS[hCit]SGGVV[hArg]KNFVPTDVGPFAF-NH2; PEG-conjugated (Table 2C: in most cases at Lys^25)) [PEG-peptide of SEQ ID NO 886] | 22.7 | – |

Next, values leading:

| PEG-peptide IC50 [nM] | Peptide IC50 [nM] | Binder |
| --- | --- | --- |
| – | 1.47 | Ac-WVEHRLKGLLSRSGGVVRKNFVPTDVGPFAF-NH2 (lactam 3-7) [SEQ ID NO 891] |
| – | 0.94 | Ac-WVTHRLRGELSRKGGVVRKNFVPTDVGPFAF-NH2 (lactam 9-13; SMILES CC(=O)N[C@@H](Cc1c[nH]c2ccccc12)C(=O)N[C@H](C(=O)N[C@H](C(=O)N[C@@H](Cc1c[nH]cn1)C(=O)N[C@@H](CCCNC(=N)N)C(=O)N[C@@H](CC(C)C)C(=O)N[C@@H](CCCNC(=N)N)C(=O)NCC(=O)N[C@H]1CCC(=O)NCCCC[C@@H](C(=O)NCC(=O)NCC(=O)N[C@H](C(=O)N[C@H](C(=O)N[C@@H](CCCNC(=N)N)C(=O)N[C@@H](CCCCN)C(=O)N[C@@H](CC(N)=O)C(=O)N[C@@H](Cc2ccccc2)C(=O)N[C@H](C(=O)N2CCC[C@H]2C(=O)N[C@H](C(=O)N[C@@H](CC(=O)O)C(=O)N[C@H](C(=O)NCC(=O)N2CCC[C@H]2C(=O)N[C@@H](Cc2ccccc2)C(=O)N[C@@H](C)C(=O)N[C@@H](Cc2ccccc2)C(N)=O)C(C)C)[C@@H](C)O)C(C)C)C(C)C)C(C)C)NC(=O)[C@H](CCCNC(=N)N)NC(=O)[C@H](CO)NC(=O)[C@H](CC(C)C)NC1=O)[C@@H](C)O)C(C)C) [SEQ ID NO 889] |
| – | 1.7 | Ac-WVEHRLEGLLKRSGGVVRKNFVPTDVGPFAF-NH2 (lactam 7-11; SMILES CC(=O)N[C@@H](Cc1c[nH]c2ccccc12)C(=O)N[C@H](C(=O)N[C@@H](CCC(=O)O)C(=O)N[C@@H](Cc1c[nH]cn1)C(=O)N[C@@H](CCCNC(=N)N)C(=O)N[C@@H](CC(C)C)C(=O)N[C@H]1CCC(=O)NCCCC[C@@H](C(=O)N[C@@H](CCCNC(=N)N)C(=O)N[C@@H](CO)C(=O)NCC(=O)NCC(=O)N[C@H](C(=O)N[C@H](C(=O)N[C@@H](CCCNC(=N)N)C(=O)N[C@@H](CCCCN)C(=O)N[C@@H](CC(N)=O)C(=O)N[C@@H](Cc2ccccc2)C(=O)N[C@H](C(=O)N2CCC[C@H]2C(=O)N[C@H](C(=O)N[C@@H](CC(=O)O)C(=O)N[C@H](C(=O)NCC(=O)N2CCC[C@H]2C(=O)N[C@@H](Cc2ccccc2)C(=O)N[C@@H](C)C(=O)N[C@@H](Cc2ccccc2)C(N)=O)C(C)C)[C@@H](C)O)C(C)C)C(C)C)C(C)C)NC(=O)[C@H](CC(C)C)NC(=O)[C@H](CC(C)C)NC(=O)CNC1=O)C(C)C) [SEQ ID NO 890] |
| 6.3 | – | WVTHXLAGLLSXSGGVVXKNFVPTDVGPFAF (Ac-WVTH[hArg]LAGLLS[hCit]SGGVV[hArg]KNFVPTDVGPFAF-NH2; PEG-conjugated (Table 2C: in most cases at Lys^25)) [PEG-peptide of SEQ ID NO 887] |
| – | 3.14 | WVTHXLAGLLSXSGGVVXKNFVPTDVGPFAF (Ac-WVTH[hArg]LAGLLS[hCit]SGGVV[hArg]KNFVPTDVGPFAF-NH2) [SEQ ID NO 887] |
